Legend:
c-Src SH2 = assay: SH2 binding enrichment of the phosphorylated peptide, bacterial display (enrichment ratio); higher = better substrate or ligand; peptides without Tyr show the background
SHP2-C SH2 = assay: as above
Grb2 SH2 = Grb2 SH2 (UniProt P62993); assay: as above
MERTK = MERTK (UniProt Q12866); assay: phosphorylation enrichment, bacterial display (enrichment ratio); higher = better substrate or ligand; peptides without Tyr show the background
Fyn = Fyn (UniProt P06241); assay: as above
AncSZ = assay: as above
c-Src = assay: as above
Fes = Fes (UniProt P07332); assay: as above
EPHB2 = EPHB2 (UniProt P29323); assay: as above
Jak2 = Jak2 (UniProt O60674); assay: as above
FGFR3 = FGFR3 (UniProt P22607); assay: as above
c-Abl (mouse) = assay: as above
Fer (mouse) = assay: as above
Hck = Hck (UniProt P08631); assay: as above
EPHB1 = EPHB1 (UniProt P54762); assay: as above
FGFR1 = FGFR1 (UniProt P11362); assay: as above
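Wherever SH2 binding enrichment of the phosphorylated peptide, bacterial display is given: peptide library displayed on the E. coli surface as eCPX fusions, selected cells deep-sequenced, score is each peptide's frequency after selection divided by its frequency in the input.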
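Wherever phosphorylation enrichment, bacterial display is given: 11-residue human phosphosite peptides and single-mutation variants displayed on the E. coli surface, counted by deep sequencing, each peptide's frequency after selection divided by its frequency in the unselected input library; frequency after pTyr selection over input frequency; kinase dosed for 20-30% of maximal phosphorylation in three min.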

Sequence of Fyn (P06241 whole entry, looked up): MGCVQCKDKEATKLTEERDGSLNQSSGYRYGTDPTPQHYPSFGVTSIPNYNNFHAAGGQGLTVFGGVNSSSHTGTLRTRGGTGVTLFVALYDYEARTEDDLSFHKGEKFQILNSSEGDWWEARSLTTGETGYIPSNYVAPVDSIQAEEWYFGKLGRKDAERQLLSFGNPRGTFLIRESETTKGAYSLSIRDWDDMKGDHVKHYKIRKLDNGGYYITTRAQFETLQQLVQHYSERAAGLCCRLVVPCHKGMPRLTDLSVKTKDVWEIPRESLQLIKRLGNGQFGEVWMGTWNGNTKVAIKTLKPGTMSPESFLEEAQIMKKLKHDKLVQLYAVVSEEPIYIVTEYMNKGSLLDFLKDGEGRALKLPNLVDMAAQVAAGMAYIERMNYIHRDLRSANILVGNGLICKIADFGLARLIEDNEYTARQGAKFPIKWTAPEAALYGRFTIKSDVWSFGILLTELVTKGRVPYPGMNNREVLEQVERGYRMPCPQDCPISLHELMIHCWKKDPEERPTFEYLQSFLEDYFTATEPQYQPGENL
Sequence of Hck (P08631 whole entry, looked up): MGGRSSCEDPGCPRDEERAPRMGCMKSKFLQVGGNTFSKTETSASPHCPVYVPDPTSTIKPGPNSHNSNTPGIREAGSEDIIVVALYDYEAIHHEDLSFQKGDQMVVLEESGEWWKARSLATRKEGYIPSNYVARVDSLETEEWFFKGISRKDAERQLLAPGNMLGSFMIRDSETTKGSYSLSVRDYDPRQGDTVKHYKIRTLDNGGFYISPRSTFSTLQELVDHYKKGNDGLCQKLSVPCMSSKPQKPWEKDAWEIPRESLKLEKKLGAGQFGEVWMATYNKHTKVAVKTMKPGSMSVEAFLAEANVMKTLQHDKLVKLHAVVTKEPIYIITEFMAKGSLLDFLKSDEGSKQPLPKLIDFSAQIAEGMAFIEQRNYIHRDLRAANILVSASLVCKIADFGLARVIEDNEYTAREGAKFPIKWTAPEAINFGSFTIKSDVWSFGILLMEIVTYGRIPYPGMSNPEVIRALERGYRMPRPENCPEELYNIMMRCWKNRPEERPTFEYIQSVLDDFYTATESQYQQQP
Sequence of FGFR1 (P11362 whole entry, looked up, the tested form may be a part): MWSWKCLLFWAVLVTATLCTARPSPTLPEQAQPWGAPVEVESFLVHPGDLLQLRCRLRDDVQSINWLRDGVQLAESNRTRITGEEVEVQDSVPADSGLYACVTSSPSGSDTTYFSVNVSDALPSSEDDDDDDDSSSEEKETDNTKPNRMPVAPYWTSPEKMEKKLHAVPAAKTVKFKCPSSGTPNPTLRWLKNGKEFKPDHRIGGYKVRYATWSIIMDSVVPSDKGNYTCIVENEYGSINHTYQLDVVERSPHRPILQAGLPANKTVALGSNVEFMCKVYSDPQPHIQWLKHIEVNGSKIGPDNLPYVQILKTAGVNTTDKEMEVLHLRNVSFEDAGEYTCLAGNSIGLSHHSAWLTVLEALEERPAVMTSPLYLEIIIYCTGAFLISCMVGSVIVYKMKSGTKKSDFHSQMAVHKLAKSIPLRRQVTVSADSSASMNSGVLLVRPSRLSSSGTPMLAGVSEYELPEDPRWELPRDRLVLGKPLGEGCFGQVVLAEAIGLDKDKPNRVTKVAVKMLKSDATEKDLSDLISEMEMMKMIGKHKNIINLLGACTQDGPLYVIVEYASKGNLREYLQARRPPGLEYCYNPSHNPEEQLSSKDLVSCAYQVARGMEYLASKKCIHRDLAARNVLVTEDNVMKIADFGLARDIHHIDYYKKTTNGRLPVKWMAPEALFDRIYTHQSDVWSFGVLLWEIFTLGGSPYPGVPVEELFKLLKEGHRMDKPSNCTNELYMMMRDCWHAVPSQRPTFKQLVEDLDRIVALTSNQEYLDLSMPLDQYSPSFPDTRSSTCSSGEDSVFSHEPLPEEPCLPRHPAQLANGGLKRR
Sequence of MERTK (Q12866 whole entry, looked up): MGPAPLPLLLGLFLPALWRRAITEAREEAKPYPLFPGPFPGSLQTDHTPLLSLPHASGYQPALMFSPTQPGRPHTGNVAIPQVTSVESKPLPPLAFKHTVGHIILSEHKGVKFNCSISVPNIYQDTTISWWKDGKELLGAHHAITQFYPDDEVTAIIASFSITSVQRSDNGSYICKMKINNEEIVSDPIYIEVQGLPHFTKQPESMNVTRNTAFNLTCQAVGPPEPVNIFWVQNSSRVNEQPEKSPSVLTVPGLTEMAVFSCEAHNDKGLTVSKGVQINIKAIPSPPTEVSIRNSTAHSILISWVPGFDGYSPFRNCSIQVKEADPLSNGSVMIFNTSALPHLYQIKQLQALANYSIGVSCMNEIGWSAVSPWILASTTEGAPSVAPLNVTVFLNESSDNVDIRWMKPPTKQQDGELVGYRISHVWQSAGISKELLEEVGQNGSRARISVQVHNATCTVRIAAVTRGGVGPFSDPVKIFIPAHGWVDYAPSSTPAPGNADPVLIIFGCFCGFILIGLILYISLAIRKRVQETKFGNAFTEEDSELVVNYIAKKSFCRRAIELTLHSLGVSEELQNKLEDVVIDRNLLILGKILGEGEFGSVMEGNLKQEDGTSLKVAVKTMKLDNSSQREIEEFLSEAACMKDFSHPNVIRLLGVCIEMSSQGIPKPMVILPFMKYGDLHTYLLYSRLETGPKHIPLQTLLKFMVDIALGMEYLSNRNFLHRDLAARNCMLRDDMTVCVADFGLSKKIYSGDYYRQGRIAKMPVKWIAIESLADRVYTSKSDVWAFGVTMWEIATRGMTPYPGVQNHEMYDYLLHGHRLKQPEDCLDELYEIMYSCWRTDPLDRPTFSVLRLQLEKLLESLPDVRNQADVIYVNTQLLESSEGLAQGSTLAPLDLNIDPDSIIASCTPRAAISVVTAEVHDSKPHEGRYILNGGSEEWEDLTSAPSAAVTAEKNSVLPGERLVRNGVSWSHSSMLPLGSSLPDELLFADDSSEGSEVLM
Sequence of EPHB1 (P54762 whole entry, looked up): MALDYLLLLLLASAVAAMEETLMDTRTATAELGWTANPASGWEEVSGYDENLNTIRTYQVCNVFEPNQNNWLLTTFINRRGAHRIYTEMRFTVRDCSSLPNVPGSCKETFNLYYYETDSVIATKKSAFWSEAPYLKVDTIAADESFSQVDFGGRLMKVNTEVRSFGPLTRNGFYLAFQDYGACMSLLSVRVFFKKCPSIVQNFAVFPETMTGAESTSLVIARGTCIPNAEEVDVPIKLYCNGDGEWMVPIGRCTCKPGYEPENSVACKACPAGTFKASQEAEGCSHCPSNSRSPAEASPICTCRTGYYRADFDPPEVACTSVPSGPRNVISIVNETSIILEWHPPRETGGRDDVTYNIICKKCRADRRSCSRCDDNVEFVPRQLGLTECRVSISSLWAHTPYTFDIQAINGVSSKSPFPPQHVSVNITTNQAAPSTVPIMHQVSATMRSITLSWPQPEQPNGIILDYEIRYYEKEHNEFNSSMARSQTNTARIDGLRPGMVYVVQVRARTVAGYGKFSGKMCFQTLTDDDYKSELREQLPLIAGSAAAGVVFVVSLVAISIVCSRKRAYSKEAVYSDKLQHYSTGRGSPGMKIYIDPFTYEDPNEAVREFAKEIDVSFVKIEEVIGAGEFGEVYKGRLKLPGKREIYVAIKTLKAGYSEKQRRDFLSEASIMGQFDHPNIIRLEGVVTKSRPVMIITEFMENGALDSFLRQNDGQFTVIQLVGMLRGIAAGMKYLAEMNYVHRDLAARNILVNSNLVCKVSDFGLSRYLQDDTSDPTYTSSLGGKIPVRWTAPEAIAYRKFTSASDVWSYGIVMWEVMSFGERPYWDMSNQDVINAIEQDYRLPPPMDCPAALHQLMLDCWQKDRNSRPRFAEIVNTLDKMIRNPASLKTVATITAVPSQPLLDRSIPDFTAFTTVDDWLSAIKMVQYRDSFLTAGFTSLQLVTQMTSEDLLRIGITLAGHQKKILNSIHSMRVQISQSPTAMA
Sequence of Fes (P07332 whole entry, looked up): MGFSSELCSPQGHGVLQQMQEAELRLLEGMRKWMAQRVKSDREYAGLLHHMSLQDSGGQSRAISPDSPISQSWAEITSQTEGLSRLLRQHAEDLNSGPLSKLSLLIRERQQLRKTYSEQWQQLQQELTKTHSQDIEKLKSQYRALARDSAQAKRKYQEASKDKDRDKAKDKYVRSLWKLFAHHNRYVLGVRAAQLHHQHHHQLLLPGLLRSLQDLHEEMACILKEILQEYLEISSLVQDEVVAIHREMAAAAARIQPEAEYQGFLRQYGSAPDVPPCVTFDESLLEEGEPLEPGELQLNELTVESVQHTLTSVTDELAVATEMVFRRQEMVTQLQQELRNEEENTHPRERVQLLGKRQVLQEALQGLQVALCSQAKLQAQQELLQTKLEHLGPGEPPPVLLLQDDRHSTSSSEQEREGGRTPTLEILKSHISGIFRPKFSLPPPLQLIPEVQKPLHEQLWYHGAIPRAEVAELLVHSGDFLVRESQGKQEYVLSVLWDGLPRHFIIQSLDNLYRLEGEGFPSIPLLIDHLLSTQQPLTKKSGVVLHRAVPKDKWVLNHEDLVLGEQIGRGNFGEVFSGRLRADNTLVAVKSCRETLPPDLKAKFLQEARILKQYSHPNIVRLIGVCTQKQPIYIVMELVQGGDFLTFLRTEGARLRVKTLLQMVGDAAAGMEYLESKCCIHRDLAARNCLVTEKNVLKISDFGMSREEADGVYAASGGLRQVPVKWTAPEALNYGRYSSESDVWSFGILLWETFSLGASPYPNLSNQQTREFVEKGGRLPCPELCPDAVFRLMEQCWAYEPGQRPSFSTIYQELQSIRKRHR

Sequence	SH2 binding enrichment (c-Src SH2)	SH2 binding enrichment (SHP2-C SH2)	SH2 binding enrichment (Grb2 SH2)	phosphorylation enrichment (MERTK)	phosphorylation enrichment (Fyn)	phosphorylation enrichment (AncSZ)	phosphorylation enrichment (c-Src)	phosphorylation enrichment (Fes)	phosphorylation enrichment (EPHB2)	phosphorylation enrichment (Jak2)	phosphorylation enrichment (FGFR3)	phosphorylation enrichment (c-Abl (mouse))	phosphorylation enrichment (Fer (mouse))	phosphorylation enrichment (Hck)	phosphorylation enrichment (EPHB1)	phosphorylation enrichment (FGFR1)
GHLYAYNWISI [BEST1_Y227_D228N]	0.738	0.816	0.944	8.13	1.01	1.71	1.32	1.49	5.2	1.33	2.83	1.21	12	1.24	6.38	3.67
GIADDYDKKKP [EIF1_Y54_L59P]	0.895	0.614	0.76	0.378	0.418	1.01	0.436	0.998	0.502	0.909	0.636	0.648	0.389	0.381	0.425	0.501
GILDVYIFLGP [GAA_Y340]	0.44	0.79	0.768	0.701	0.505	1.27	0.7	1.44	0.792	1.21	1.02	0.866	0.381	0.676	0.787	0.864
GISDEYHVIRR [GCDH_Y398_H403R]	0.835	0.889	0.833	0.457	0.517	0.983	0.621	0.792	0.541	0.719	0.881	0.607	0.471	1.5	0.529	1.46
GKSDPYHATTG [GJA1_Y247_S251T]	0.416	0.778	0.771	0.319	0.345	0.396	0.361	0.506	0.254	0.41	0.409	0.476	0.38	0.413	0.287	0.374
GNLLIYTDFGK [HGD_Y166_E168D]	0.765	0.822	0.891	3.44	4.75	1.08	4.63	1.27	1.27	1.09	0.702	1.53	0.726	3.49	3.06	0.682
GPIFRYDSGGA [CYP11B1_Y81_L83S]	0.543	0.732	0.969	0.42	0.478	0.82	0.475	0.802	0.418	0.69	0.554	0.576	0.402	0.43	0.487	0.505
GQRDLYSGLNQ [CD3E_Y199]	0.822	0.574	0.852	5.2	6.14	1.11	6.88	0.749	2.35	0.594	0.583	1.06	4.76	12.4	2.25	0.449
GRLPEYNTRIA [CCDC151_Y542]	0.482	0.643	0.949	0.45	0.372	0.512	0.408	0.589	0.44	0.55	0.543	0.513	0.339	0.416	0.341	0.404
GRSTCYWPRPR [GAGE12J_Y10_Y9C]	0.507	0.831	1.03	0.567	0.543	0.762	0.649	0.686	0.512	0.885	0.531	0.697	0.602	0.557	0.502	0.538
GSLEDYVRETN [GIMAP6_Y176]	0.541	0.656	0.785	0.442	0.468	1	0.424	0.869	0.573	0.724	0.661	0.619	0.398	0.54	0.438	0.501
GSRGKYSSGFH [ATM_Y332_R337H]	0.905	0.649	1.04	0.452	0.421	0.464	0.45	0.535	0.3	0.439	0.605	0.579	0.409	0.391	0.417	0.452
GTVRDYPDFNP [ANXA3_Y15_S19N]	0.536	0.609	0.874	0.304	0.404	0.785	0.357	0.796	0.431	0.9	0.526	0.663	0.407	0.418	0.519	0.403
GVIRHYVVCST [BTK_Y334]	0.495	0.529	0.819	0.447	0.535	1.13	0.444	1.25	0.712	1.12	0.813	0.87	0.566	0.536	0.68	0.555
GVPLGYPIKAS [ELN_Y206_P211S]	0.423	0.581	0.783	0.366	0.368	0.438	0.381	0.576	0.333	0.477	0.412	0.714	0.376	0.404	0.327	0.407
GYAGKYIAMVM [CYP19A1_Y441_C437Y]	0.732	0.563	0.883	0.479	0.489	0.752	0.381	0.904	0.483	0.644	0.584	0.862	0.545	0.526	0.525	0.521
HESEIYCKVCF [CSRP3_Y57_YF]	1.54	1.35	1.44	3.7	5.35	1.52	6.41	1.11	1.42	1.21	0.89	1.17	2.49	7.63	0.854	0.821
HFMELYDLNRD [BBS2_Y648_R643H_YF]	0.654	1.51	1.25	0.563	1.38	1.1	4.64	1.18	0.594	1.28	0.723	0.943	0.784	1.48	0.625	0.497
HFPDVYAWEQL [ALX3_Y181_R183W_YF]	0.809	0.662	1.23	2.25	7.03	1.2	5.25	1.46	0.935	0.893	0.674	0.632	11.3	3.06	0.922	0.616
HHIDYYKKTTN [FGFR1_Y654]	0.443	0.535	0.699	0.663	0.711	0.577	0.481	0.633	0.721	0.592	0.803	0.569	0.646	0.481	0.47	0.568

Now from value to sequence, other results behind:

SH2 binding enrichment (c-Src SH2)	SH2 binding enrichment (SHP2-C SH2)	SH2 binding enrichment (Grb2 SH2)	Sequence	phosphorylation enrichment (MERTK)	phosphorylation enrichment (Fyn)	phosphorylation enrichment (AncSZ)	phosphorylation enrichment (c-Src)	phosphorylation enrichment (Fes)	phosphorylation enrichment (EPHB2)	phosphorylation enrichment (Jak2)	phosphorylation enrichment (FGFR3)	phosphorylation enrichment (c-Abl (mouse))	phosphorylation enrichment (Fer (mouse))	phosphorylation enrichment (Hck)	phosphorylation enrichment (EPHB1)	phosphorylation enrichment (FGFR1)
0.369	0.62	0.692	GLGGGYGGASG [KRT8_Y54]	0.285	0.344	0.429	0.317	0.534	0.359	0.379	0.367	0.448	0.348	0.316	0.376	0.398
0.634	0.958	0.775	GPCKAYELSQR [SETX_Y1297_R1294C]	0.451	0.533	0.735	0.546	0.969	0.63	0.66	0.547	0.664	0.496	0.467	0.416	0.547
7.2	7.01	3.4	GPGSGYTNIMR [PKLR_Y564_R559G]	0.393	0.391	0.553	0.412	0.496	0.398	0.533	0.47	0.827	0.362	0.444	0.48	0.35
0.697	0.546	0.664	GPQSLYNGLVA [UCP2_Y79_R76Q]	0.723	0.85	0.622	1.83	0.614	0.551	0.744	0.515	0.628	0.552	3.69	0.477	0.493
0.596	0.822	0.946	GSCQEYTGAPF [NAXD_Y85_G81S_YF]	0.424	0.422	1.16	0.564	1.04	0.496	0.98	0.798	0.638	0.466	0.509	0.628	0.536
0.362	0.469	0.754	GSIQQYIFKQE [PRG4_Y1271_YF]	0.452	0.429	0.836	0.545	0.738	0.573	0.508	0.574	0.499	0.451	0.537	0.476	0.531
0.384	0.599	0.604	GSIQQYTYKQE [PRG4_Y1271_I1272T]	0.374	0.37	0.773	0.444	0.94	0.494	0.806	0.559	0.731	0.437	0.483	0.45	0.453
2.07	0.499	0.689	GSQERYFELVE [TSC2_Y407]	0.489	0.462	1.13	0.509	1.27	0.571	1.17	0.826	0.813	0.541	0.466	0.577	0.947
0.595	0.751	0.893	GSTLSYFGLAT [P2RX7_Y343_A348T]	0.637	0.639	1.09	0.595	0.912	0.5	5.4	1.36	0.998	0.545	0.687	0.635	1.36
0.392	0.821	0.584	GTQGSYLLSRK [UGT3A1_Y123_C121G]	0.433	0.4	0.523	0.555	0.56	0.411	0.615	0.355	0.606	0.392	0.49	0.48	0.366
1.56	0.73	0.716	GTTIHYNYMCN [TP53_Y234_C229G]	0.585	0.614	1.12	0.529	1.37	0.704	1.22	0.973	0.814	0.656	0.673	0.834	0.619
1.62	1.14	0.681	HDRNTYEKYLE [TF_Y666_G671E]	0.506	0.856	1.07	0.995	1.21	0.595	1.24	0.748	1.08	0.715	0.736	0.505	0.584
0.828	0.783	0.678	HHTNEYEFDEL [TGM1_Y134_D132N_YF]	0.607	1.13	1.56	0.939	1.42	1.01	0.884	0.832	0.624	0.558	0.719	0.691	0.702

— the supplement of paper PMC10065799, “High-throughput profiling of sequence recognition by tyrosine kinases and SH2 domains using bacterial peptide display” (eLife, 2023)
